# Test results reported in IntAct's records for PubMed 32296183.
# B1: Catenin alpha-3 (Homo sapiens), Q9UI47-2 (parent)
# chain: MSAETPITLNIDPQDLQVQTFTVEKLLEPLIIQVTTLVNCPQNPSSRKKGRSKRASVLLASVEEATWNLLDKGEKIAQEATVLKDELTASLEEVRKESEALKVSAERFTDDPCFLPKREAVVQAARALLAAVTRLLILADMIDVMCLLQHVSAFQRTFESLKNVANKSDLQKTYQKLGKELENLDYLAFKRQQDLKSPNQRDEIAGARASLKENSPLLHSICSACLEHSDVASLKASKDTVCEEIQNALNVISNASQGIQNMTTPPEPQAATLGSALDELENLIVLNPLTVTEEEIRPSLEKRLEAIISGAALLADSSCTRDLHRERIIAECNAIRQALQDLLSEYMNNAGKKERSNTLNIALDNMCKKTRDLRRQLRKAIIDHVSDSFLDTTVPLLVLIEAAKNGREKEIKEYAAIFHEHTSRLVEVANLACSMSTNEDGIKIVKIAANHLETLCPQIINAALALAARPKSQAVKNTMEMYKRTWENHIHVLTEAVDDITSIDDFLAVSGMFLFF
# partner: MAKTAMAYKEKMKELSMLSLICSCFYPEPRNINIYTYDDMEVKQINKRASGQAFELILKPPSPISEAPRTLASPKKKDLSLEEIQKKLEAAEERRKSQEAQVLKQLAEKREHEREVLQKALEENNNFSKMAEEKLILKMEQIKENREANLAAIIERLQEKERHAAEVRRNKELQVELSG
# B2: Very-long-chain enoyl-CoA reductase (Homo sapiens), Q9NZ01 (parent)
# chain: MKHYEVEILDAKTREKLCFLDKVEPHATIAEIKNLFTKTHPQWYPARQSLRLDPKGKSLKDEDVLQKLPVGTTATLYFRDLGAQISWVTVFLTEYAGPLFIYLLFYFRVPFIYGHKYDFTSSRHTVVHLACICHSFHYIKRLLETLFVHRFSHGTMPLRNIFKNCTYYWGFAAWMAYYINHPLYTPPTYGAQQVKLALAIFVICQLGNFSIHMALRDLRPAGSKTRKIPYPTKNPFTWLFLLVSCPNYTYEVGSWIGFAIMTQCLPVALFSLVGFTQMTIWAKGKHRSYLKEFRDYPPLRMPIIPFLL
# partner: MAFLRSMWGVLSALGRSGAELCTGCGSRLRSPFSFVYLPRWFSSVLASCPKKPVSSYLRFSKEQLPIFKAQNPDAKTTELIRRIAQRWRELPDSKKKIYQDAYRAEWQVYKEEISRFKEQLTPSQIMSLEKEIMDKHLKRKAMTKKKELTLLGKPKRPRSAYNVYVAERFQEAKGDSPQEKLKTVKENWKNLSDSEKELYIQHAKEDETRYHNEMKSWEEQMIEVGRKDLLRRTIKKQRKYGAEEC
# B3: Golgi SNAP receptor complex member 2 (Homo sapiens), O14653 (parent)
# chain: MDPLFQQTHKQVHEIQSCMGRLETADKQSVHIVENEIQASIDQIFSRLERLEILSSKEPPNKRQNARLRVDQLKYDVQHLQTALRNFQHRRHAREQQERQREELLSRTFTTNDSDTTIPMDESLQFNSSLQKVHNGMDDLILDGHNILDGLRTQRLTLKGTQKKILDIANMLGLSNTVMRLIEKRAFQDKYFMIGGMLLTCVVMFLVVQYLT
# partner: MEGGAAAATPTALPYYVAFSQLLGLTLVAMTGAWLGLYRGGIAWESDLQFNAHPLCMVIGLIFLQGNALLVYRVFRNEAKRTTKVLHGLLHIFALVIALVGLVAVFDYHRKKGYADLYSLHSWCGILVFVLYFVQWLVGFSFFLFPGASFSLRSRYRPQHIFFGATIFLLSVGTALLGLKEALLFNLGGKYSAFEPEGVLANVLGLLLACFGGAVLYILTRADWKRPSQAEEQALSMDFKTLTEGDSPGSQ
# B4: Golgi SNAP receptor complex member 2 (Homo sapiens), O14653 (parent)
# chain: B3 chain
# partner: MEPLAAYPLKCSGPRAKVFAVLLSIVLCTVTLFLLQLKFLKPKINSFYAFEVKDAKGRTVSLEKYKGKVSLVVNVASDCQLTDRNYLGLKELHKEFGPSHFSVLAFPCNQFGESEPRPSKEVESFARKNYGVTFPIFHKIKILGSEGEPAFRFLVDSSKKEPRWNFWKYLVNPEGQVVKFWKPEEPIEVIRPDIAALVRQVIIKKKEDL
# B5: Very-long-chain enoyl-CoA reductase (Homo sapiens), Q9NZ01 (parent)
# chain: B2 chain
# partner: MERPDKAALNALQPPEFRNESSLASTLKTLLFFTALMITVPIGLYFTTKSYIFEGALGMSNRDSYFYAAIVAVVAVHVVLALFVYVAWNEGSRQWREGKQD
# B6: Golgi SNAP receptor complex member 2 (Homo sapiens), O14653 (parent)
# chain: B3 chain
# partner: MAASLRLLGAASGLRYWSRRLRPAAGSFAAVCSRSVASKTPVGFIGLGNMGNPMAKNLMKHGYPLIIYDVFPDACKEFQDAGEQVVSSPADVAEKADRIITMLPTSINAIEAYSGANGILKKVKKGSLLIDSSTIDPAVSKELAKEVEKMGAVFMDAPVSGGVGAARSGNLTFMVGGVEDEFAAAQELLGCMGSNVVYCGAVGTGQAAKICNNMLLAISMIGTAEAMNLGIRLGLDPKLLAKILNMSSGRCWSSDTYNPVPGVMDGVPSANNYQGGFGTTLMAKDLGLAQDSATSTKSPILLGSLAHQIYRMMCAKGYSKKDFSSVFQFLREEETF
# B7: Golgi SNAP receptor complex member 2 (Homo sapiens), O14653 (parent)
# chain: B3 chain
# partner: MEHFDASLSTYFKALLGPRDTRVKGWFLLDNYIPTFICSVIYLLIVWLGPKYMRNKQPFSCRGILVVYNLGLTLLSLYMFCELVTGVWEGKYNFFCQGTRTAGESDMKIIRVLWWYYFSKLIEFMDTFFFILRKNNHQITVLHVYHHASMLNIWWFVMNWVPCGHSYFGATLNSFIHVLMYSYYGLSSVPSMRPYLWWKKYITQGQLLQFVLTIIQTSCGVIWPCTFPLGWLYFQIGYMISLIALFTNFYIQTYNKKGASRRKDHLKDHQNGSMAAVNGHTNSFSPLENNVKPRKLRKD
# Variants of: B1
# Settings: with stmn2_human STMN2, Q93045
row,Variant,effect of a mutation on the interaction
1,V94D,with no effect

# Variants of: B2
# Settings: with tfam_human TFAM
row,Variant,effect of a mutation on the interaction
1,P182L,disrupting interaction strength

# Variants of: B3
# Settings: with cy561_human CYB561, P49447
row,Variant,effect of a mutation on the interaction
1,G144W,with no effect

# Variants of: B4
# Settings: with gpx8_human GPX8, Q8TED1
row,Variant,effect of a mutation on the interaction
1,G144W,with no effect

# Variants of: B5
# Settings: with vma21_human VMA21, Q3ZAQ7
row,Variant,effect of a mutation on the interaction
1,P182L,disrupting interaction strength

# Variants of: B6
# Settings: with 3hidh_human HIBADH
row,Variant,effect of a mutation on the interaction
1,G144W,disrupting interaction strength

# Variants of: B7
# Settings: with elov5_human ELOVL5, Q9NYP7
row,Variant,effect of a mutation on the interaction
1,G144W,with no effect
